Tested on: peptide library, one residue held at a place counted from the Y acceptor
Experiment: relative phosphorylation of the sub-library (ratio to the mean residue at this position); higher = residue favoured
Method in brief: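 Biotinylated Tyr-centred peptide library mixtures, each fixing one residue at one position from −5 to +5, were incubated with purified recombinant kinases in 384-well plates for 90 min with 50 μM ATP plus γ-32P-ATP. Streptavidin membranes captured the peptides, which were rinsed and quantified by phosphorimaging and ImageQuant. At each position, intensities were divided by the sum of the 18 randomized residues (16 for the Ser/Thr-free library) and multiplied by that number. Each value is phosphorylation relative to the mean randomized residue.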

EPHB2, construct: aa611-893, human, sequence (P29323 611-893, looked up): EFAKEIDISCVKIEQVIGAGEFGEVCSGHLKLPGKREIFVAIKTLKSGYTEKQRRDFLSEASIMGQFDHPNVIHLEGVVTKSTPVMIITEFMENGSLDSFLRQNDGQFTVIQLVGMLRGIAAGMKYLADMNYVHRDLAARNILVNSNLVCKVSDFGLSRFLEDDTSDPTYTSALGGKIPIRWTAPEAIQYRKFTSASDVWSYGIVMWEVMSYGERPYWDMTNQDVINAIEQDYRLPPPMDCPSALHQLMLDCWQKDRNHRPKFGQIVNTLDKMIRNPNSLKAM
EPHB3, construct: aa623-907, human, sequence (P54753 623-907, looked up): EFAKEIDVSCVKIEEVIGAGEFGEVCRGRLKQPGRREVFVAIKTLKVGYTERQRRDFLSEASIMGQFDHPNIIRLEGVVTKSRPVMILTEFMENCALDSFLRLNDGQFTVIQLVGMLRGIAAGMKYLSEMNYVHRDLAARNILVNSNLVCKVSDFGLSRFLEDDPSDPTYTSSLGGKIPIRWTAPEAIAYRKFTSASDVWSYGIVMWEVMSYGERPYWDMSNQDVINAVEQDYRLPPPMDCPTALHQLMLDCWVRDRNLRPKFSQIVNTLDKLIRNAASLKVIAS

EPHB2, construct: aa611-893, human (from UniProt P29323)
relative phosphorylation
Conditions | at +1 | at +2 | at +3 | at +4 | at +5 | at -1 | at -2 | at -3 | at -4 | at -5
A fixed | 1.72 | 0.968 | 0.884 | 0.898 | 1.16 | 0.485 | 1.16 | 0.764 | 1.06 | 1.02
D fixed | 1.17 | 1.15 | 0.473 | 1.11 | 1.01 | 2.48 | 1.32 | 1.45 | 1.35 | 1.24
E fixed | 2.89 | 1.54 | 0.434 | 1.07 | 1.06 | 1.55 | 1.47 | 1.76 | 1.28 | 0.996
F fixed | 0.59 | 1.27 | 1.36 | 0.922 | 0.937 | 0.938 | 0.635 | 1.33 | 1.11 | 0.972
G fixed | 1.1 | 0.438 | 0.65 | 1.2 | 1.18 | 0.224 | 1.17 | 0.845 | 1.28 | 1.05
H fixed | 0.443 | 0.626 | 1.29 | 1.1 | 0.998 | 0.494 | 0.825 | 0.807 | 0.872 | 0.921
I fixed | 1.23 | 1.39 | 1.72 | 0.817 | 0.889 | 2.02 | 0.77 | 1 | 0.898 | 0.905
K fixed | 0.166 | 0.428 | 0.273 | 0.699 | 0.691 | 0.207 | 0.791 | 0.522 | 0.784 | 0.995
L fixed | 0.752 | 0.958 | 1.31 | 0.864 | 1.06 | 1.85 | 0.769 | 0.927 | 0.963 | 0.946
M fixed | 1.33 | 0.838 | 1.19 | 1.09 | 0.934 | 0.759 | 0.674 | 0.919 | 0.868 | 0.942
N fixed | 0.41 | 0.927 | 0.646 | 0.796 | 0.853 | 2.06 | 1.26 | 1.03 | 0.937 | 1.11
P fixed | 0.171 | 0.732 | 1.27 | 1.16 | 1.46 | 0.343 | 1.33 | 0.945 | 1.09 | 1.19
Q fixed | 1.2 | 0.882 | 0.762 | 0.976 | 0.868 | 0.502 | 1.17 | 0.933 | 1.25 | 1.12
R fixed | 0.22 | 0.618 | 0.433 | 0.771 | 0.756 | 0.245 | 0.749 | 0.603 | 0.802 | 0.96
S fixed | 0.992 | 0.953 | 0.769 | 1.03 | 1.11 | 0.47 | 1.43 | 0.968 | 0.898 | 0.88
T fixed | 0.766 | 1.1 | 0.908 | 0.949 | 1.05 | 1.03 | 0.923 | 0.794 | 0.667 | 0.726
V fixed | 1.77 | 1.78 | 1.92 | 1.02 | 0.934 | 1.48 | 0.878 | 0.928 | 0.851 | 0.957
W fixed | 1.07 | 1.41 | 1.7 | 1.52 | 1.04 | 0.868 | 0.657 | 1.46 | 1.05 | 1.07
pThr fixed | 1.64 | 1.98 | 0.439 | 0.858 | 0.64 | 1.77 | 1.05 | 0.962 | 0.894 | 0.877
pTyr fixed | 1.75 | 4.02 | 0.872 | 1.28 | 1.1 | 2.15 | 1.15 | 1.12 | 1.04 | 1.12

EPHB3, construct: aa623-907, human (from UniProt P54753)
relative phosphorylation
Conditions | at +1 | at +2 | at +3 | at +4 | at +5 | at -1 | at -2 | at -3 | at -4 | at -5
A fixed | 1.96 | 0.847 | 0.837 | 0.853 | 0.843 | 0.583 | 1.21 | 0.804 | 1.15 | 0.981
D fixed | 1.06 | 0.993 | 0.442 | 1.06 | 1.14 | 2.09 | 1.04 | 1.04 | 1.03 | 0.921
E fixed | 2.6 | 1.33 | 0.413 | 1.16 | 1.15 | 1.38 | 1.29 | 1.19 | 1.39 | 0.842
F fixed | 0.588 | 1.38 | 1.31 | 1.04 | 0.656 | 1.03 | 0.661 | 1.39 | 1.09 | 1.16
G fixed | 1.13 | 0.428 | 0.651 | 1.26 | 1.36 | 0.226 | 1.33 | 1.05 | 1.37 | 1.32
H fixed | 0.573 | 0.91 | 1.57 | 1.19 | 1.12 | 0.638 | 0.9 | 1.05 | 0.899 | 0.933
I fixed | 1.19 | 1.24 | 1.95 | 0.801 | 0.581 | 2.29 | 0.899 | 1.14 | 1.01 | 1.14
K fixed | 0.211 | 0.576 | 0.297 | 0.737 | 1.02 | 0.234 | 0.841 | 0.61 | 0.898 | 0.992
L fixed | 0.732 | 0.974 | 1.39 | 0.821 | 0.613 | 1.87 | 0.83 | 0.912 | 0.959 | 0.98
M fixed | 1.14 | 0.913 | 1.29 | 0.984 | 0.927 | 0.849 | 0.709 | 0.928 | 0.854 | 0.9
N fixed | 0.393 | 1.01 | 0.653 | 0.856 | 1.1 | 2.4 | 1.12 | 1.09 | 0.922 | 1.08
P fixed | 0.157 | 0.739 | 1.26 | 1.54 | 1.46 | 0.415 | 1.32 | 1.12 | 1.06 | 1.06
Q fixed | 1.31 | 0.954 | 0.799 | 1.01 | 1.07 | 0.406 | 1.18 | 0.837 | 1.11 | 0.989
R fixed | 0.278 | 0.768 | 0.468 | 0.855 | 1.32 | 0.239 | 0.896 | 0.722 | 0.84 | 1.03
S fixed | 1 | 0.886 | 0.689 | 0.8 | 1.2 | 0.516 | 1.3 | 1 | 0.82 | 0.869
T fixed | 0.903 | 0.989 | 0.796 | 0.865 | 1.16 | 1.03 | 0.96 | 0.942 | 0.762 | 0.761
V fixed | 1.64 | 1.29 | 1.7 | 0.814 | 0.552 | 1.1 | 0.848 | 0.874 | 0.777 | 0.795
W fixed | 1.12 | 1.77 | 1.49 | 1.36 | 0.723 | 0.697 | 0.672 | 1.31 | 1.05 | 1.26
pThr fixed | 1.34 | 1.82 | 0.32 | 0.825 | 0.763 | 1.63 | 0.847 | 0.897 | 0.873 | 0.831
pTyr fixed | 1.5 | 3.93 | 0.629 | 0.894 | 0.978 | 1.79 | 1.05 | 1.06 | 1.06 | 0.83

Source: the supplement of paper PMC11136658
